From the supplement of paper PMC9170038

Tested on: MS2 coat protein
Experiment: apparent KD of MS2 coat protein; designed switch direction (-1 OFF switch, 1 ON switch): -1; higher = weaker reporter binding
Procedure, shortened: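 Each step of the titration lasted 0.8–1.5 h at the lowest concentration and 10–20 min at the highest. The protein, SNAP-549-labelled MS2 coat protein, went from 0.7 or 1.5 nM doubling to 3 µM over RNA switches transcribed on Illumina chips by stalled E. coli RNA polymerase. Normalised cluster fluorescence was curve-fitted, and the per-design median over clusters is given as apparent KD.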

[1] = Eterna round: R95, input ligand: microRNA oligo, concentration not stated
[2] = input ligand: microRNA oligo, concentration not stated

Sequence	apparent KD of MS2 coat protein (input ligand: FMN 200 uM) [µM]	apparent KD of MS2 coat protein (input ligand: none) [µM]	apparent KD of MS2 coat protein [1] [µM]	apparent KD of MS2 coat protein [2] [µM]	apparent KD of MS2 coat protein (Eterna round: R95, input ligand: FMN 200 uM) [µM]	apparent KD of MS2 coat protein (Eterna round: R95, input ligand: none) [µM]
AGGUGUAGAGGAUAUCUCUUCUCUCACAUGAGGAUCACCCAUGUCCUGGGUACCUAGGAGAGAGAAGGCUACACCA [Omei Ex5 D11] (Eterna round: R97, puzzle: Exclusion 5)	1.37	0.587				
AGAUUGAAUGAGGAUAUCGUUGCGGGUACGUAGCGAGAAGGCAUGACAUGAGGAUCACCCAUGUAGUGUGGGUU [JR_Ex6_Sub019] (Eterna round: R97, puzzle: Exclusion 6)	0.805	0.336				
CGGUCAUGAGGAUAUCGAGGUUAGUACAUGAGGAUCACCCAUGUUAUCCAGGUGUCGGUUCGAGAAGGCAUGUCCG [LRO-Ex5-12] (puzzle: Exclusion 5)			0.287			
AAGUAGACAGUGAGGAUAUAGGUGGAAUGACCCAUUUAGAAGGUACAUGAGGAUCACCCAUGUGGGUAAUGUCG [Brourd's EX4 #27] (Eterna round: R97, puzzle: Brourd's mod of Exclusion 4)	0.146	0.149				
UCUUUGUCAGGAUAUCGUGCAUACAACGAAAGUUCUAUGUGCGAGAAGGGACAUGAGGAUCACCCAUGUUACGG [Omei Ex4 A4] (Eterna round: R97, puzzle: Exclusion 4)	0.244	0.358				
GAUAGAGAGCAGGAUAUCUUAGAAAUGUAUUAUAGAGAAGGGCUCACAUGAGGAUCACCCAUGUGGUCCUAGAU [JL Dibiri mod 15] (Eterna round: R96, puzzle: Exclusion 6)	0.0943	0.0196		0.0144		
GUGGCACAUGAGGAUCACCCAUGUUAGGAUAUGCUCAAAACGCCCUAGGGUAAGCUGUGUAGAAGGAGCAGGAC [Eternabot (L1) Solution 52] (Eterna round: R97, puzzle: Exclusion 1)	0.0337	0.0356				
UUUUUAUAUGAAGGAUAUACUUAACAUGAGGAUCACCCAUGUGGUGUUGUGAGUGAGUGAGUUUAGUAGAAGGUCAAGUAUUAU [JMF's solution 38] (Eterna round: R96, puzzle: Exclusion NG 2)	0.776	0.464		0.265		
UGUUGUCGCGCAGGAUAUGAGGAUCACCCAUAUAGAGGAUAUGAAAAGAAGGCUCUGAGGAUUACCCAGAAGGGCGGGACAACU [pwkr exNG2 2xF5 2xFMN.21] (Eterna round: R96, puzzle: Exclusion NG 2)	1.66	0.179		0.152		
UAAUAUAGUGUGAGGAUAUGCUGGUCGAUAGAUCAGCAGAAGGCACAUGAGGAUCACCCAUGUAAUAUAUUAAA [Mat - Exclusion 4 - JL Mod - D36] (puzzle: Brourd's mod of Exclusion 4)			0.0307		0.0646	0.0429
UAUUUGCAAGCGAGAUCCCACAUGAGGAUCACCCAUGUUCUUUGAAAGUACAGAAUUACUGUACAAGCUCGUCUUAU [Winner reversed engineered 31] (Eterna round: R97, puzzle: Sensor, turn-off variant 1)	0.0626	0.0734				
AGAAUGGUACAGGAUAUAGCAUCUAACUGCAUGCUAGAAGGGUAUACAUGAGGAUCACCCAUGUAGUCGUGGAU [Eternabot (L1) Solution 13] (Eterna round: R97, puzzle: Exclusion 6)	0.0552	0.0374				
GGCAUGUGAGGAUAUGUACCUGAGUGCUUUGCGCUCAGGAAACAGAAGGCACAUGAGGAUCACCCAUGUGAAAU [jl-ex4-4.48 ViennaUCT mod] (Eterna round: R97, puzzle: Exclusion 4)	0.0968	0.251				
GCACGGAAUGUAGGAUAUUAGUGCGAUUAGCACUGAGAAGGACAUGAGGAUCACCCAUGUUCCUCAAUAAUAAACCUUCCGUGC [Eli exng1 - 044] (Eterna round: R96, puzzle: Exclusion NG 1)	0.013	0.0133		0.0102		
CGUCAGUGAGGAUAUGGUUUCGUGUACAUGAGGAUCACCCAUGUUUCUUGGGACUAAUUACUAGAAGGCACUGACG [JR_Ex5_Sub033] (Eterna round: R97, puzzle: Exclusion 5)	0.0212	0.014				
CUUUCGUGAGGAUAUGUGGCUUCGAAAGUGAGAUCGAGGCUACAGAAGGCACAUGAGGAUCACCCAUGUUCCUC [salish99_ex4_r4_214] (Eterna round: R97, puzzle: Exclusion 4)	0.371	0.0282				
